Data reported in patent US20250320284A1 (AC IMMUNE, published 2025).

T1: mouse ASC (mouse, UniProt Q9EPB4 1-193)
T1 sequence: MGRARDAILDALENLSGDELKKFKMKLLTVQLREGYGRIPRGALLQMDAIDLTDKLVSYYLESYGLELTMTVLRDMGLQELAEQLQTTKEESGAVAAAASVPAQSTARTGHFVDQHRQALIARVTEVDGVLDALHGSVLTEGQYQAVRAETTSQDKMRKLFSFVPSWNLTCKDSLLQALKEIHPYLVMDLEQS

T2: CARD domain of human ASC (human, UniProt Q9ULZ3 107-195)
T2 construct: biotinylated in BLI; also called hCARD; human CARD
T2 sequence: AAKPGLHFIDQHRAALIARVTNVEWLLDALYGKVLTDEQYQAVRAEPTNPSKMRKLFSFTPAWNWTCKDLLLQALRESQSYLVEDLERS


How the values were obtained:
PYD domain of human ASC [1] = biological target: T3, PYD domain of human ASC (human, UniProt Q9ULZ3 1-91, limits assumed); experiment: ELISA, coated hPYD;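 further: monoclonal antibody binding to plate-coated human ASC PYD measured by ELISA, with a phosphatase substrate absorbance read-out and EC50 from a variable slope curve fit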
T3 construct: biotinylated in BLI; His/MBP-tagged in the alanine ELISA; also called hPYD; human PYD

mouse ASC [2] = biological target: T1, mouse ASC; experiment: cell-based or functional assay
[3] = biological target: T4, human ASC (apoptosis associated speck-like protein containing a caspase-recruitment domain) (human, UniProt Q9ULZ3 1-195); experiment: cell-based or functional assay
mouse ASC [4] = biological target: T1, mouse ASC; experiment: SPR affinity mode, steady-state fit, apparent KD; SPR affinity mode, mAb captured, mASC in solution; steady-state fit, apparent KD
CARD domain of human ASC [5] = biological target: T2, CARD domain of human ASC; experiment: BLI binning on CARD, competitor 18F4C12-Ab1
CARD domain of human ASC [6] = biological target: T2, CARD domain of human ASC; experiment: BLI binning on CARD, competitor 2629E8D1-Ab1
[7] = biological target: T4, human ASC (apoptosis associated …); experiment: ELISA, coated hASC;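 further: antibody binding to plate-coated recombinant human ASC, read as phosphatase substrate absorbance, EC50 from four-parameter variable-slope fit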
[8] = biological target: T4, human ASC (apoptosis associated …); experiment: SPR affinity mode, mAb captured;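 further: Single-cycle SPR kinetics with mAbs captured on goat anti-mouse antibody, double-referenced against blank flow cell and buffer cycle, fitted by a 1:1 kinetic model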
CARD domain of human ASC [9] = biological target: T2, CARD domain of human ASC; experiment: ELISA, coated hCARD
[10] = biological target: T4, human ASC (apoptosis associated …); experiment: cell-based or functional assay; remark: listed apart in the source
CARD domain of human ASC [11] = biological target: T2, CARD domain of human ASC; experiment: BLI binning on CARD, competitor 2609F4A9-Ab1
CARD domain of human ASC [12] = biological target: T2, CARD domain of human ASC; experiment: BLI binning on CARD, competitor 2622E12F11-Ab1
CARD domain of human ASC [13] = biological target: T2, CARD domain of human ASC; experiment: BLI binning on CARD, competitor 2504F3D9-Ab1
mouse ASC [14] = biological target: T1, mouse ASC; experiment: ELISA, coated mASC; ELISA on mASC protein
CARD domain of human ASC [15] = biological target: T2, CARD domain of human ASC; experiment: BLI binning on CARD, competitor 32B6C7-Ab1
mouse ASC [16] = biological target: T1, mouse ASC; experiment: ELISA, coated mASC
mouse ASC [17] = biological target: T1, mouse ASC; experiment: cell-based or functional assay; remark: listed apart in the source
PYD domain of human ASC [18] = biological target: T3, PYD domain of human ASC; experiment: BLI binning on PYD, competitor 2610H7D3-AB1
PYD domain of human ASC [19] = biological target: T3, PYD domain of human ASC; experiment: BLI binning on PYD, competitor 401H9B7-AB1
PYD domain of human ASC [20] = biological target: T3, PYD domain of human ASC; experiment: BLI binning on PYD, competitor 26A1G2-AB1
PYD domain of human ASC [21] = biological target: T3, PYD domain of human ASC; experiment: BLI binning on PYD, competitor 2626B9D3-AB1
PYD domain of human ASC [22] = biological target: T3, PYD domain of human ASC; experiment: BLI binning on PYD, competitor 31F10C5-AB1
PYD domain of human ASC [23] = biological target: T3, PYD domain of human ASC; experiment: BLI binning on PYD, competitor 2617C3A8-AB1
mouse ASC [24] = biological target: T1, mouse ASC; experiment: SPR affinity mode, mAb captured;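 further: Single-cycle SPR kinetics with mAbs captured on goat anti-mouse antibody, double-referenced against blank flow cell and buffer cycle, fitted by a 1:1 kinetic model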
PYD domain of human ASC [25] = biological target: T3, PYD domain of human ASC; experiment: BLI binning on PYD, competitor 23E5F7-AB2
PYD domain of human ASC [26] = biological target: T3, PYD domain of human ASC; experiment: BLI binning on PYD, competitor 22D3A6-AB1
PYD domain of human ASC [27] = biological target: T3, PYD domain of human ASC; experiment: BLI binning on PYD, competitor 416E6G4-AB1

T3 sequence (Q9ULZ3 1-91 limits assumed): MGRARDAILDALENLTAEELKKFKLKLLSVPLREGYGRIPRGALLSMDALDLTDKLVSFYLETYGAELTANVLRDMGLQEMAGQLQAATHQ

Binder	binding result (PYD domain of human ASC [1])	% IL-1β inhibition, mouse primary microglia, 420 nM mAb (mouse ASC [2]) [%]	Human ASC polymerization assay, IC50 [3] [nM]	Kd (mouse ASC [4]) [nM]	normalized binding response (CARD domain of human ASC [5]) [%]	normalized binding response (CARD domain of human ASC [6]) [%]	EC50 [7] [nM]	Kd [8] [nM]	koff [8] [s⁻¹]	kon [8] [M⁻¹ s⁻¹]	EC50 (CARD domain of human ASC [9]) [nM]	IL-1β release, human monocytic cell line, IC50 [10] [nM]	normalized binding response (CARD domain of human ASC [11]) [%]	normalized binding response (CARD domain of human ASC [12]) [%]	normalized binding response (CARD domain of human ASC [13]) [%]	EC50 (mouse ASC [14]) [nM]	normalized binding response (CARD domain of human ASC [15]) [%]	Mouse ASC polymerization assay, IC50 (mouse ASC [17]) [nM]	other results
ACI-8016-2622E12F11-AB1 (antibody, V domains shown) VH: RVQLQQAGAELVKPGASVKVSCKASGNTFNNYWIYWVKQRPGQGLEWIGRIHPSDSGTNYNQKFEGKATLTVDKSSGTAYMQLSSLTAEDSAVYYCALLSLYAMDSWGHGTSVTVSS VL: DIVLTQSPASLAVSLGQRATISCRASKSVSSFGYNYIHWYLQKPGQPPKLLIYLASDLESGVPARFSGSGSGTGFTLNIHPVEEEDAATYYCQHSREFPWTFGGGTKLEIK	no binding	95.9	19.4	176	18	87	0.11	3.66	0.000786	235000	0.12	30.8	74	0	-2	0.16	91	–	–
ACI-8016-2609F4A9-AB1 (antibody, V domains shown) VH: QVQLQQSDAELVKPGASVKISCKVSGYALTDHSIHWMKQRPEQGLAWIGYMYPGDGSANYNDKFRGKATLTADISSSTAYMHLNSLTSEDSAVYFCTRPYSFGSSYDYFGYWGQGTTLTVSS VL: DIQMNQSPSSLSASLGDTITITCHASQNINVWLNWYQQKPGNIPKLLIYKASKLHTGVSSSFSGSGSGTGFTLTISSLQPEDIGTYYCQQGQSYPYTFGGGTKLEIK	no binding	82.3	32.8	168	96	0	0.12	24.9	0.00783	297000	0.11	16.2	0	103	0	0.3	7	–	–
ACI-8016-2629E8D1-AB1 (antibody, V domains shown, also called ACI-8016-2629E8D1-AB1_rmG2a_01) VH: QVQLQQSDAELVKPGGSVKISCKVSGYTFTDHTIHWMKQRPEQGLEWIGNIYPGDGSTMYNEKFKGKATLTADKSSSTAYMHLNSLTSEDSAVYFCARPYYFGSASYYFGYWGQGTTLTVSS VL: DIQMNQSPSSLSASLGDTITITCHASQNINVWLNWYQQKPGNIPKLLIYKASNLHTGVPSRFSGSGSGIGFTLTISSLQPEDIATYYCQQGQSYPLTFGGGTKLEIK	no binding	88.8	14.1	134	95	0	0.11	1.38	0.000182	140000	0.12	14.9	-2	102	-2	0.22	3	–	–
ACI-8016-31F10C5-AB1 (antibody, V domains shown, also called 936.31F10C5) VH: QVQLQQSEPELARPGASVKLSCTASGYTFINYGVSWVRQRTGQGLEWIGRIYPRSGNTRFNEKFQGKATLTADTSSSTAYMELRSLTSEDSAVYFCTRFPYAFSGNSYWYFDVWGTGTTVTVSS VL: DIVMTQSHKFMSTSIGDRVSITCKASQDVSAAVAWYQQKPGQSPKLLIYSSSFRYTGVPDRFTGSASGTDFTFTITTVQAEDLAVYYCQQHFDTPYTFGGGTKLEIK	–	90.5	6.3	–	–	–	0.24	0.16	0.000199	1.23e+06	–	33	–	–	–	–	–	34.8	EC50 (PYD domain of human ASC [1]): 0.18 nM; EC50 (mouse ASC [16]): 0.3 nM; normalized binding response (PYD domain of human ASC [18]): 2%; normalized binding response (PYD domain of human ASC [19]): 79%; normalized binding response (PYD domain of human ASC [20]): 0%; normalized binding response (PYD domain of human ASC [21]): 49%; normalized binding response (PYD domain of human ASC [22]): 1%; normalized binding response (PYD domain of human ASC [23]): 3%; Kd (mouse ASC [24]): 0.36 nM; koff (mouse ASC [24]): 0.000314 s⁻¹; kon (mouse ASC [24]): 886000 M⁻¹ s⁻¹; normalized binding response (PYD domain of human ASC [25]): 2%; normalized binding response (PYD domain of human ASC [26]): 3%; binding result (CARD domain of human ASC [9]): no binding; normalized binding response (PYD domain of human ASC [27]): 4%
ACI-8016-2504F3D9-AB1 (antibody, V domains shown) VH: DVKLVESGEGLVKPGGSLKLSCAVSGFTFSNYAMSWVRQTPEKRLEWVAYISSGGDFIYYRDTVKGRFTISRDNARNTLYLQMSSLKSEDTAMYYCILQLRPEAWFAYWGQGTLVTVSA VL: DIKMTQSPSSMYASLGERVTITCKASQDIKNYLSWFQQIPGKSPKTLIYRANRLVDGVPSRFSGSGSGQDYSLTISSLEYEDMGIYYCLQYYEFPYTFGGGTKLEIK	no binding	–	–	–	76	20	0.19	8.3	0.000723	89300	0.13	16.7	17	19	0	–	21	–	–
ACI-8016-2626B9D3-AB1 (antibody, V domains shown) VH: QVQLQQPGTELVKPGASVKLSCRASGWTHWVKQRPGQGLEWIGNINLSNGRTNYNEKFRAMATLTVDKSSSTAYTQLSSLTSEDSAVYYCANSMVPHFFPMDYWGQGTSVTVSS VL: NIVMTQYPKSMSLSIGERVTLRCKASENVGSYVSWYQQKPEQSPKLLIYGASNRYTGVPDRFTGSGSATDFILTITSVQAEDLADYHCGQSYNYPLTFGAGTKLELK	–	52	–	34.4	–	–	–	–	–	–	–	–	–	–	–	0.38	–	27.3	–
